B1: ATP-dependent DNA helicase II subunit 2 (Saccharomyces cerevisiae), Q04437 (parent)
chain: MSSESTTFIVDVSPSMMKNNNVSKSMAYLEYTLLNKSKKSRKTDWISCYLANCPVSENSQEIPNVFQIQSFLAPVTTTATIGFIKRLKQYCDQHSHDSSNEGLQSMIQCLLVVSLDIKQQFQARKILKQIVVFTDNLDDLDITDEEIDLLTEELSTRIILIDCGKDTQEERKKSNWLKLVEAIPNSRIYNMNELLVEITSPATSVVKPVRVFSGELRLGADILSTQTSNPSGSMQDENCLCIKVEAFPATKAVSGLNRKTAVEVEDSQKKERYVGVKSIIEYEIHNEGNKKNVSEDDQSGSSYIPVTISKDSVTKAYRYGADYVVLPSVLVDQTVYESFPGLDLRGFLNREALPRYFLTSESSFITADTRLGCQSDLMAFSALVDVMLENRKIAVARYVSKKDSEVNMCALCPVLIEHSNINSEKKFVKSLTLCRLPFAEDERVTDFPKLLDRTTTSGVPLKKETDGHQIDELMEQFVDSMDTDELPEIPLGNYYQPIGEVTTDTTLPLPSLNKDQEENKKDPLRIPTVFVYRQQQVLLEWIHQLMINDSREFEIPELPDSLKNKISPYTHKKFDSTKLVEVLGIKKVDKLKLDSELKTELEREKIPDLETLLKRGEQHSRGSPNNSNN

Variants of: B1
Settings: with sir4_yeast SIR4, P11978
Chain of sir4_yeast SIR4, P11978 (P11978 whole entry): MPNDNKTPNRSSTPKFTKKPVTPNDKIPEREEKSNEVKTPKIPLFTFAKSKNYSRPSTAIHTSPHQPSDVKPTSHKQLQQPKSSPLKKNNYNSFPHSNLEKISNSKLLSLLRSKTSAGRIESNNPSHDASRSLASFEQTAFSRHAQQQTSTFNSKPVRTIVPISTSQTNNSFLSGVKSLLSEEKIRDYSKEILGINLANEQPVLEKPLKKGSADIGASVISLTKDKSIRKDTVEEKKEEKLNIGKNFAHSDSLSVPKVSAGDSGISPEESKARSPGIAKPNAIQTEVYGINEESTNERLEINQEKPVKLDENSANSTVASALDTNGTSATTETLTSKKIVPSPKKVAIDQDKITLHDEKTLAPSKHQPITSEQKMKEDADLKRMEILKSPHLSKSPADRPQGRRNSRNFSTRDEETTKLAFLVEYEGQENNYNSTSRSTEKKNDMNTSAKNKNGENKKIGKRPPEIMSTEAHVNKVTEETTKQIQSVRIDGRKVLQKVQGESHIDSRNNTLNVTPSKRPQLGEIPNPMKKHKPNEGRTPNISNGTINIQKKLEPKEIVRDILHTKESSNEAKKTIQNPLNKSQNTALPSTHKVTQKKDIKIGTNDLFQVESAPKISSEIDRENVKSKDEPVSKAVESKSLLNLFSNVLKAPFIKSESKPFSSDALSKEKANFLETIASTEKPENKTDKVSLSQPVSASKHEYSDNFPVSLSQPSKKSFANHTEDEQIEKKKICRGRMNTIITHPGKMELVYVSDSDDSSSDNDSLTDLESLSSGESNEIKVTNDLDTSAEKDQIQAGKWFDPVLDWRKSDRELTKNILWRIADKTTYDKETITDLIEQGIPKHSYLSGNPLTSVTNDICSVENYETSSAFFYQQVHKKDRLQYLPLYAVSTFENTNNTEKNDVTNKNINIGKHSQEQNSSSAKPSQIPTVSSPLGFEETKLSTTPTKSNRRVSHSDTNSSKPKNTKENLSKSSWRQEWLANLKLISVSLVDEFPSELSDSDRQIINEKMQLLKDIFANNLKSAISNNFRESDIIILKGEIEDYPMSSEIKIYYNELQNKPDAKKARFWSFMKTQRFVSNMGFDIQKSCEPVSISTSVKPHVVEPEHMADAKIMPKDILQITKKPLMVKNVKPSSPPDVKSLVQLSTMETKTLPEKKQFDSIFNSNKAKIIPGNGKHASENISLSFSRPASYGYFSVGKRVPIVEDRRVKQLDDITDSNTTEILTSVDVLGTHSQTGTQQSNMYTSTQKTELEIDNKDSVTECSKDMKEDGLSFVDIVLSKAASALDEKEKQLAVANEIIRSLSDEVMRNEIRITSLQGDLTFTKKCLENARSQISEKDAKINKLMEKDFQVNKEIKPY

effect of a mutation on the interaction | Variant
decreasing interaction | P437A;F438A
decreasing interaction | D441G

— IntAct's records for PubMed 14551211
